Patent US20250019432A1 (MABLYTICS, published 2025)

T1: S12-C2 (human, UniProt Q96PQ1 1-481)
T1 construct: also called siglec12 C2set2 region
T1 sequence: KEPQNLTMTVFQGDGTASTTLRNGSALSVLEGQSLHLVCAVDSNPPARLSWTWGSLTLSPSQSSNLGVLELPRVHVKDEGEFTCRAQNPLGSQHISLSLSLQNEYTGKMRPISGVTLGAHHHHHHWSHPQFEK


Legend:
[1] = biological target: T2, S12-Fc (human siglec12 extracellular domain fused with mouse Fc2a fragment) (human; mouse); test: ELISA
T2 construct: also called S12ecto-mouse Fc2a
Description: After 6 weeks of immunization, serum samples from immunized mice were screened for the presence of siglec12-specific immunoglobulins. Screening was carried out by enzyme-linked immunosorbent assay (ELISA) and by fluorescence-associated cell sorting (FACS). ELISA assays utilized assay plates coated with S12-Fc target antigen for immobilization of siglec12-specific immunoglobulins from mouse serum samples, which were detected using anti-mouse light chain (kappa and lambda) secondary antibody conjugated to horseradish peroxidase (HRP). The level of bound secondary antibody was assessed by incubation with colorimetric peroxidase substrate followed by measurement of light absorbance intensity values obtained at 450 nm. For FACS analysis, serum samples were combined with U937 cells (Fc receptor blocked with 10% human serum), an AML cell line that overexpresses human siglec12. Immunoglobulin binding to siglec12 associated with these cells is a strong indicator of potential immunotherapeutic use to treat AML. Anti-mouse heavy chain fluorescent detection reagents were used to label cell surface-bound serum immunoglobulins before FACS analysis. Lymph node and spleen cells from the three best responders were harvested and fused with P3X63Ag8.653 mouse myeloma cells. After 10-14 days of selection, the resulting hybridoma library was single-cell cloned into 96-well culture plates using FACS. After 10-14 days of single cell expansion, all monoclonal hybridoma culture supernatants were screened for S12-Fc binding immunoglobulins by ELISA. Supernatant positive for S12-Fc-binding immunoglobulins was further screened by FACS for immunoglobulin binding to U937 cells. The Table includes an antibody identification number (ID #) assigned to siglec12-binding antibodies associated with each hybridoma culture. For ELISA results, background adjusted mean absorbance values obtained at 450 nm are shown. For FACS analysis, Flow Fluor MFI is the mean fluorescence intensity from flow cytometry assay (background MFI=100) and flow % gated is the percentage of cells having greater than background fluorescence.

[2] = biological target: T3, siglec7 with C-terminal FLAG tag on Expi 293 cells (UniProt Q9Y286 19-467, limits assumed); test: flow cytometry, transfected Expi 293, 500 nM
T3 construct: whole, on cells; not shown: C-terminal FLAG tag
Description: (§1) To verify anti-siglec12 antibody specificity for native siglec12 (over other siglec family members), cross-reactivity analysis was carried out using flow cytometry. Expi 293 cells were grown in 6 well plates and transfected with […] of pcDNA3.1 expression vectors (Thermo Fisher Scientific, Waltham, MA) with inserts encoding siglec6, siglec7, siglec8, siglec9, or siglec12 proteins with C-terminal FLAG tags. The following day, Expi293 enhancers were added. On day 2 (post-transfection) cells were washed in PBSB and aliquoted into plastic V-bottomed plates at a density of 5×10⁵ cells/well. An aliquot was also used for Western blot analysis to confirm siglec expression (using anti-FLAG antibody as described below). Plated cells were incubated with anti-siglec12 antibodies at a concentration of 500 nM or siglec-specific control antibody (all from R&D Systems, Minneapolis, MN; Siglec6-specific clone 767329; Siglec8-specific clone 837535; Siglec9-specific clone 191240) at a concentration of 12.5 μg/mL for 2 hours on ice. Cells were then washed with ice cold PBSB and incubated with PE-goat anti mouse H/L chain secondary antibody (1:400 in PBSB) for 30 minutes on ice. Cells were again washed with ice cold PBSB and analyzed for surface staining based on fluorescence intensity determined by GUAVA® […]™ Plus flow cytometer.

[3] = biological target: T4, siglec8 with C-terminal FLAG tag on Expi 293 cells (UniProt Q9NYZ4 17-499, limits assumed); test: flow cytometry, transfected Expi 293, 500 nM
T4 construct: whole, on cells; not shown: C-terminal FLAG tag
Description: as §1

[4] = biological target: T5, siglec9 with C-terminal FLAG tag on Expi 293 cells (UniProt Q9Y336 18-463, limits assumed); test: flow cytometry, transfected Expi 293, 500 nM
T5 construct: whole, on cells; not shown: C-terminal FLAG tag
Description: as §1

[5] = biological target: T6, S7ecto-Fc (human siglec7 ectodomain fused with human Fc domain) (human, UniProt Q9Y286 19-353); test: ELISA
T6 construct: extracellular domain; bought from R&D Systems; not shown: human Fc domain
Description: (§2) Fusion proteins of human siglec7 or siglec9 ectodomains fused with human Fc domains (R&D Systems, Minneapolis, MN) were immobilized on assay plates and incubated with media from hybridoma cultures described above before detection of bound antibodies using anti-mouse (heavy/light) secondary antibody conjugated to HRP. Levels of bound secondary antibody were assessed by applying colorimetric substrate and measuring absorbance values at 450 nm.

[6] = biological target: T7, S9ecto-Fc (human siglec9 ectodomain fused with human Fc domain) (human, UniProt Q9Y336 18-348); test: ELISA
T7 construct: extracellular domain; bought from R&D Systems; not shown: human Fc domain
Description: as §2

[7] = biological target: T8, S12-V1 (human); test: ELISA
T8 construct: also called siglec12 Vset1 region
Description: (§3) For ELISA assays, purified subdomain proteins were passively immobilized on assay plates and incubated with media from hybridoma cultures described above before detection of bound anti-subdomain antibodies using anti-mouse (heavy/light) secondary antibody conjugated to horseradish peroxidase (HRP). Levels of bound secondary antibody were assessed by applying colorimetric substrate and measuring absorbance values at 450 nm. Absorbance values greater than 0.07 indicate specific binding.

[8] = biological target: T1, S12-C2; test: ELISA
Description: as §3

[9] = biological target: T9, S12-V2C1 (human, UniProt Q96PQ1 1-358); test: ELISA
T9 construct: also called siglec12 Vset2-C2set1 region
Description: as §3

[10] = biological target: T6, S7ecto-Fc (human siglec7 ectodomain …); test: ELISA; remark: listed apart in the source

T8 sequence (chain, as listed by the source limits assumed): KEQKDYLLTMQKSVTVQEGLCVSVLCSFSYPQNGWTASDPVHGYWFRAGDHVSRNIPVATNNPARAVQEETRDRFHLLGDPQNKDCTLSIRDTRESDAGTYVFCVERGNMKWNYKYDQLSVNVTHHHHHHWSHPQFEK
T3 sequence (Q9Y286 19-467 limits assumed): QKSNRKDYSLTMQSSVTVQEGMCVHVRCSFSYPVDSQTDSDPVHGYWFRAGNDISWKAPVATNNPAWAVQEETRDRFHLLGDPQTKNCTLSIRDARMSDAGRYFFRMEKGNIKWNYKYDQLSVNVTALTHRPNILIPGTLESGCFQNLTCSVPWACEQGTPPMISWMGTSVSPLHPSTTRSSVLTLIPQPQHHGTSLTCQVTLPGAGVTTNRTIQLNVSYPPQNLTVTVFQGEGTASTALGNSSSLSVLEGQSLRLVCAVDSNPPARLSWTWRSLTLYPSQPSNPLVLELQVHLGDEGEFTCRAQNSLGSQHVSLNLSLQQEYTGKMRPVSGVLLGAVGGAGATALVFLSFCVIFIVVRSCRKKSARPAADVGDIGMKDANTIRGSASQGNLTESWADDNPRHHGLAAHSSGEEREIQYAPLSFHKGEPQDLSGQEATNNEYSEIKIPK
T2 sequence (chain, as listed by the source limits assumed): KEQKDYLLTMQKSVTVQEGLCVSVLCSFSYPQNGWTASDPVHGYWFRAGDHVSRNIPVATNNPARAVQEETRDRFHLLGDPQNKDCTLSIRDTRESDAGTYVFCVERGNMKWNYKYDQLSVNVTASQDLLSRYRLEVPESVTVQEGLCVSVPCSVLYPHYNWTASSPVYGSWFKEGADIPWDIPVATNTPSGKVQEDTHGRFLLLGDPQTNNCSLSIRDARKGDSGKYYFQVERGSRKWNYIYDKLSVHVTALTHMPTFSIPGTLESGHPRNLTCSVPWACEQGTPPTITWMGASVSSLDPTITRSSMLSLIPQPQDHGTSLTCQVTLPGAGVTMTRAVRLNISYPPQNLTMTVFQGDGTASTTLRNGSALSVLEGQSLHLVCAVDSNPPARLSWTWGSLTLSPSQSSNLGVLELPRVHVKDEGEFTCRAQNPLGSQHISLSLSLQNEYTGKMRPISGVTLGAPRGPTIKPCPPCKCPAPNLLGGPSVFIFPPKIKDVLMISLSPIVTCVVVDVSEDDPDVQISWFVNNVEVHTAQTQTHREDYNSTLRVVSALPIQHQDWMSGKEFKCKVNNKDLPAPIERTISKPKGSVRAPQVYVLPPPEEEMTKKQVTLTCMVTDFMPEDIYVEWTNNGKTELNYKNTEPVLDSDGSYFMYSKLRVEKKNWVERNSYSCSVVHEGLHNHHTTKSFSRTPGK
T7 sequence (Q9Y336 18-348): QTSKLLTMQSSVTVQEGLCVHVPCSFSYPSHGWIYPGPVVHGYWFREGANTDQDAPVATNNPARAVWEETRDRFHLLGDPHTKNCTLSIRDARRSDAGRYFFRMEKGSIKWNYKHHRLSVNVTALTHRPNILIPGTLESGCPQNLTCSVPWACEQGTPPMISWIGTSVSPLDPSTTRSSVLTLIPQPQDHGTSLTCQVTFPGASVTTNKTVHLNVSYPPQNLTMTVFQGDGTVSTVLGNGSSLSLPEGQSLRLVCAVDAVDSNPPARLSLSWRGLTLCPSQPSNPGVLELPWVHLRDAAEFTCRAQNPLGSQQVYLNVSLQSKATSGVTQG
T9 sequence (Q96PQ1 other isoform, or with tags, fused parts or gaps limits assumed): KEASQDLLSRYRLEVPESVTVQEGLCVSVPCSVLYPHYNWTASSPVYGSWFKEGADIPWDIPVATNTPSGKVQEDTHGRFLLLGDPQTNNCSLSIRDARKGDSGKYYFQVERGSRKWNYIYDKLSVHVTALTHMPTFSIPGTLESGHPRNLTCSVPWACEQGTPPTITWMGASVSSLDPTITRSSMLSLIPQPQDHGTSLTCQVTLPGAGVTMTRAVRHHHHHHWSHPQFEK
T5 sequence (Q9Y336 18-463 limits assumed): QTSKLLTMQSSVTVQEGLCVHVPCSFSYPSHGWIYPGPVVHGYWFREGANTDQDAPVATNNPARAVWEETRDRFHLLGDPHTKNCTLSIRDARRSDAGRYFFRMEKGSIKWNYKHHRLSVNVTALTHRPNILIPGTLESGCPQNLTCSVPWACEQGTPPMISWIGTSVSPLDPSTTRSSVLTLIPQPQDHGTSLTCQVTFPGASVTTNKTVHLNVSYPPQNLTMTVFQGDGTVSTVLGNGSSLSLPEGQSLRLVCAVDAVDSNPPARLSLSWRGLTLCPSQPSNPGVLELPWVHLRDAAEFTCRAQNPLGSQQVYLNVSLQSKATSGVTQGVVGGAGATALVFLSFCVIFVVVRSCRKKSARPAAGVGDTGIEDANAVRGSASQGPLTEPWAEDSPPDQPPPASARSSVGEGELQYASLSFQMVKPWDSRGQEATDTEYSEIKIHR
T4 sequence (Q9NYZ4 17-499 limits assumed): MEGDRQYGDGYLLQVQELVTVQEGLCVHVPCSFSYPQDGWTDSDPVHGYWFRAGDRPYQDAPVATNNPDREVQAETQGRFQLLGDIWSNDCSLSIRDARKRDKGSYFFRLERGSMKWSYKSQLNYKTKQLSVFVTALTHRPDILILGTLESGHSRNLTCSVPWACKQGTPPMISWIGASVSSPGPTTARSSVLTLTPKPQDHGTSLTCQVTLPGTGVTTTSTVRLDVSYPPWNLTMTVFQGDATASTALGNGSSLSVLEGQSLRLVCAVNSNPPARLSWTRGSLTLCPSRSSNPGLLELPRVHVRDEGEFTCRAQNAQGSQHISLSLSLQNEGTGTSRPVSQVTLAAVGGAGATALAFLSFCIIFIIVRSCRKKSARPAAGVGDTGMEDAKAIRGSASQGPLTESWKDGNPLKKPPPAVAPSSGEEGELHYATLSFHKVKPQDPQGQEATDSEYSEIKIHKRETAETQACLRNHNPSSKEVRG
T6 sequence (Q9Y286 19-353): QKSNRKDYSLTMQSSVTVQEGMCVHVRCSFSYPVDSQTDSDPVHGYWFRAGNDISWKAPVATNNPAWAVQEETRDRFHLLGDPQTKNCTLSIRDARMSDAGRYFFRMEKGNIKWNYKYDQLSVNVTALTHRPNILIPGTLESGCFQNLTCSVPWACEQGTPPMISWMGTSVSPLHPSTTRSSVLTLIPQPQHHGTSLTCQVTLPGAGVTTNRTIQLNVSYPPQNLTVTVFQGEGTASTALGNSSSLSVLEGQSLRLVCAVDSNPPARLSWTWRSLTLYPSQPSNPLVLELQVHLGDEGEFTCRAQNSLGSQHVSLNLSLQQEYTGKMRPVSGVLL

Binder | A450 [1] | MFI [2] | MFI [3] | MFI [4] | A450 [5] | A450 [6] | A450 [7] | binding result [8] | binding result [9] | binding result [10] | binding result [7] | A450 [9] | A450 [8]
S0042 (antibody, V domains shown, human variable domains with mouse constant regions (Trianni mouse hybridoma)) VH: QVQLVQSGTEVKKPGASVKVSCKVSGYTLSDLSIHWVRQAPGKGLEWMGGFEPEDGEIIYAQKFQGRVIMTEDTSTDTAYMKLSSLRSEDTAVYYCATDKRYFDWLLSGFDYWGQGTLVTVSS VL: DIQLTQSPSFLSASVGDRVTITCRASQGISSYLAWYQQKPGKAPKLLIFAASTLQSGVPSRFSGSGSGTEFTLTISSLQPEDFATYYCQRLHSYPRTFGQGTKVEIKRA | 1.99 | 3.9 | 5.3 | 2.3 | 0.06 | 0.05 | 0.1 | no binding (tested: A450 0.07) | no binding (tested: A450 0.07) |  |  |  | 
S0057 (antibody, V domains shown, human variable domains with mouse constant regions (Trianni mouse hybridoma); also called S0057 whole antibody) VH: QGQLVQSGAEVKKPGASVKVSCKASGYTFNNYGISWVRQAPGQGLEWMGWISAYNGFTRSTQKFQGRVTLTTDTSTSTAHMELRSLRSDDTAAYYCARDGGDGFDPWGQGTLVTVSS VL: EIVLTQSPATLSLSPGERATLSCRASQSVSSFLAWYQQKPGQAPRLLIFDASNRATGIPARFSGSGSGTDFTLTISSLEPEDFAVYYCQQRSNWITFGQGTRLEIKRA | 2.64 | 2.8 | 6.3 | 1.3 | 0.07 | 0.08 |  | no binding (tested: A450 0.07) |  | no binding (tested: A450>0.09 (so in the source)) | no binding (tested: A450 0.07) | 0.62 | 
S0102 (antibody, V domains shown, human variable domains with mouse constant regions (Trianni mouse hybridoma); also called S0102 anti-Siglec12 antibody) VH: QVQLVESGGGVVQPGRSLRLSCAASGFTFSSYGMHWVRQAPGKGLEWVAVISYDGSNKYYTDSVKGRFTISRDNSKNTLYLQMNSLRAEDTAVYYCARGGYYGSGSLDYWGQGTLVTVSS VL: not shown | 3.34 |  | 7 |  | 0.07 | 0.06 |  |  |  |  | no binding (tested: A450 0.07) | 1.65 | 0.08
S0023 (antibody, V domains shown, human variable domains with mouse constant regions (Trianni mouse hybridoma)) VH: EVQLLESGGGLVQPGGSLRLSCAASGFTFSTFAMSWVRQAPGKGLEWVSTISGGGDSTYYADSVKGRFTISRDNSKNMMSLQMNSLRAVDTAVYYCVKGGGDEYFYYGMDVWGQGTTVTVSS VL: DIQMTQSPSSLSASVGDRVTITCRASQGIRNDLGWYQQKPGKAPKRLIYSASSLQSGVPSRFSGSGSGTEFTLTISSLQPEDFATYYCLQHNSYPYTFGQGTPLDIKR |  | 2.1 | 2.8 | 3 | 0.05 | 0.05 |  | no binding (tested: A450 0.07) |  |  | no binding (tested: A450 0.07) |  | 
S0040 (antibody, V domains shown, human variable domains with mouse constant regions (Trianni mouse hybridoma)) VH: QVQLVQSGAEVKKPGASVKVSCKASGYTFTSYDINWVRQATGQGLEWMGWMNPNSGNTGYAQNFQGRVTMTRNTSINTAYMELSSLRSEDTAVYYCTRGGPTLVRGVIIRDAFDFWGQGTMVTVSS VL: EIVMTQSPATLSVSPGERATLSCRASQSVSNSFAWYQQKPGQAPRLLIYGAFTRATGIPARFSGSGSGTEFTLTISSLQSEDFAVYYCQQYKTWPLTFGGGTKVEIKR |  |  |  |  | 0.05 | 0.05 |  |  | no binding (tested: A450 0.07) |  | no binding (tested: A450 0.07) |  | 
S0103 (antibody, V domains shown, human variable domains with mouse constant regions (Trianni mouse hybridoma)) VH: QVQLVQSGAEVKKPGASVKVSCKASGYTFTSYDINWVRQATGQGLEWMGWMNPNSGNTGYAQNFQGRVTMTRDTSVNTAYMELSSLRSEDTAVYYCARGGPNLVRGVIIRDAFDFWGQGTMVTVSS VL: EIVMTQSPATLSVSPGERATLSCRASQSVSNSFAWYQQKPGQAPRLLIYGAFTRATGIPARFSGSGSGIEFTLTISSLQSEDFAVYYCQQYKTWPLTFGGGTKVEIKR |  |  |  |  | 0.06 | 0.05 |  |  | no binding (tested: A450 0.07) |  | no binding (tested: A450 0.07) |  | 
